Earlier results, collected in patent publication US20260297164A1, “ANTI-FIBROTIC PEPTIDES AND USES THEREOF” (Deackt, Inc., priority 2021, published 2026).

Test system: CD148
Details: extracellular proteins; cited from earlier work

B1: syndecan-2: known extracellular protein that can bind to CD148 (protein, UniProt P34741 19-201, looked up)
Syndecan-2: ESRAELTSDKDMYLDNSSIEEASGVYPIDDDDYASASGSGADEDVESPELTTSRPLPKILLTSAAPKVETTTLNIQNKIPAQTKSPEETDKEKVHLSDSERKMDPAEEDTNVYTEKHSDSLFKRTEVLAAVIAGGVIGFLFAIFLILLLVYRMRKKDEGSYDLGERKPSSAAYQKAPTKEFYA
In the case of B1, the “binding to CD148 and activation of PTP activity” value is listed as “can bind to CD148 and activate PTP activity”.
